The values below come from US20240158505A1 (published 2024).

Assay [1] deals with T1, Recombinant Human B7-H3 Fc chimera Protein (Rndsystem, Cat #1027-B3-100) (human, UniProt Q5ZPR3 29-245).
T1 chain: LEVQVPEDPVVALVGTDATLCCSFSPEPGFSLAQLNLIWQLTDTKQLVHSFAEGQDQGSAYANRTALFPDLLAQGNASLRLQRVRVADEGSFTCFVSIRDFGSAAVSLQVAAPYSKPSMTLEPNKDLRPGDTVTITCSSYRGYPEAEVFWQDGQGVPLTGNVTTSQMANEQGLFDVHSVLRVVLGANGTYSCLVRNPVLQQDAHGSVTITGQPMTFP
In words: ELISA. On the technique in general: An ELISA detects its analyte on a solid surface through an enzyme-linked reagent.

Assay [2] deals with B7-H3 expressed on the cell membrane (MCF-7, RKO and RKO/B7H3 cell lines) (UniProt Q5ZPR3). In words: cell ELISA on fixed RKO/B7H3 cells.
Sequence of B7-H3 expressed on the cell membrane (MCF-7, RKO and RKO/B7H3 cell lines) (Q5ZPR3 29-534): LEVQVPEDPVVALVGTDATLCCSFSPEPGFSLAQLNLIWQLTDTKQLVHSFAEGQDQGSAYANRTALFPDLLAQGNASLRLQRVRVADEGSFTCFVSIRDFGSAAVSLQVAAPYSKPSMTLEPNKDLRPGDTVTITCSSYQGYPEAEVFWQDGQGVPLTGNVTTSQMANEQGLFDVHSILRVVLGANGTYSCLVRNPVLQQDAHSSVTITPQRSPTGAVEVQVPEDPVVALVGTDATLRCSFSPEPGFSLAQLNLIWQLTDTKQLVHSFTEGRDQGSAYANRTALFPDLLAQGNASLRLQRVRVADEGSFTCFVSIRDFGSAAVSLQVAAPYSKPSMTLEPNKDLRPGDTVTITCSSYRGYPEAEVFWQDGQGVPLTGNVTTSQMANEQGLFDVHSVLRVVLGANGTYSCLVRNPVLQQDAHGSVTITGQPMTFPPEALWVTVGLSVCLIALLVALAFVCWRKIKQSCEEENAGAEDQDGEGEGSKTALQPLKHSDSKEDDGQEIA
Assay [3] has the same target. Put plainly: cell ELISA on fixed MCF-7 cells.

For orientation: EC50 means the concentration that produces a half-maximal response.

B1: #2 antibody (antibody, V domains shown)
VH: EVQLLESGGGLVQPGGSLRLSCAASGFTFSAYYMIWVRQAPGKGLEWVSITNPSGGVTSYAQKFQGRFTISRDNSKNTLYLQMNSLRAEDTAVYYCARVGGRGFDIWGQGTLVTVSS
VL: EIVLTQSPGTLSLSPGERATLSCHASQGISNYVAWYQQKPGQAPRLLIYDASNRATGIPDRFSGSGSGTDFTLTISHLEPEDFAVYYCQQSYSTLLTFGQGTKVEIK
Turning to B1, the concentration giving a half-maximal response (EC50) is 0.42 nM in assay [1], 0.036 nM in assay [2] and 0.061 nM in assay [3].

B2: #4 antibody (antibody, V domains shown)
VH: EVQLLESGGGLVQPGGSLRLSCAASGFTFSSYGMHWVRQAPGKGLEWVSAISGSGTSIYYANSVKSRFTISRDNSKNTLYLQMNSLRAEDTAVYYCARGAGWFDYWGQGTLVTVSS
VL: QSVLTQPPSASGTPGQRVTISCSGSTSNIGSNTVNWYQQLPGTAPKLLIYGKNIRPNGVPDRFSGSKSGTSASLAISGLHSEDEADYYCQSYDSSLSGWVFGGGTKLTVL
Turning to B2, the EC50 was determined as 0.55 nM in assay [1], 0.042 nM in assay [2] and 0.502 nM in assay [3].

B3: #5 antibody (antibody, V domains shown)
VH: EVQLLESGGGLVQPGGSLRLSCAASGFTFSTYAMSWVRQAPGKGLEWVSAISGSGGSTLYADSVKGRFTISRDNSKNTLYLQMNSLRAEDTAVYYCARGGSATWAFDLWGQGTLVTVSS
VL: QSVLTQPPSASGTPGQRVTISCSGSSSNIGSNYVYWYQQLPGTAPKLLIYRNNQRPSGVPDRFSGSKSGTSASLAISGLRSEDEADYYCGTWDSSLSGVVFGGGTKLTVL
In the case of B3, the EC50 came out at 1.2 nM in assay [1], 0.091 nM in assay [2] and 1.74 nM in assay [3].

B4: #3 antibody (antibody, V domains shown)
VH: EVQLLESGGGLVQPGGSLRLSCAASGFTFSTYYMTWVRQAPGKGLEWVSIINPRGGSTSYAEKFQGRFTISRDNSKNTLYLQMNSLRAEDTAVYYCARWNLGMDVWGQGTLVTVSS
VL: EIVLTQSPGTLSLSPGERATLSCRVSQSISSYLNWYQQKPGQAPRLLIYDASHRATGIPDRFSGSGSGTDFTLTISRLEPEDFAVYYCQQYYAPSVTFGQGTKVEIK
As for B4, the EC50 in assay [1] is 1.1 nM; in assay [2], 0.065 nM; in assay [3], 0.197 nM.

B5: #6 antibody (antibody, V domains shown)
VH: EVQLLESGGGLVQPGGSLRLSCAASGFTFSTYAISWVRQAPGKGLEWVSSIYYSGYTHYNPSLESRFTISRDNSKNTLYLQMNSLRAEDTAVYYCARGYSGWMDVWGQGTLVTVSS
VL: QSVLTQPPSASGTPGQRVTISCGGNNIGSKSVHWYQQLPGTAPKLLIYDNNKRPSGVPNRFSGSKSGTSASLAISGLRSEDEADYYCAAWDDSLNVPVFGGGTKLTVL
As to B5, the EC50 amounted to 1.86 nM in assay [1], 0.065 nM in assay [2] and 0.234 nM in assay [3].

B6: #9 antibody (antibody, V domains shown)
VH: EVQLLESGGGLVQPGGSLRLSCAASGFTFSSYAMNWVRQAPGKGLEWVSTISGSGGQTYYADSVKGRFTISRDNSKNTLYLQMNSLRAEDTAVYYCARWRSIWAFDYWGQGTLVTVSS
VL: QSVLTQPPSASGTPGQRVTISCSDNNIGSKSVHWYQQLPGTAPKLLIYDNNKRPSGVPDRFSGSKSGTSASLAISGLRSEDEADYYCGTWDDSLSGPVFGGGTKLTVL
Regarding B6, the values for the EC50 in assay [1], in assay [2] and in assay [3] were 1.1 nM, 0.05 nM and 0.322 nM, respectively.

B7: #7 antibody (antibody, V domains shown)
VH: EVQLLESGGGLVQPGGSLRLSCAASGFTFSNFWIGWVRQAPGKGLEWVSWINPPGSITSYADSVKGRFTISRDNSKDTLYLQMNSLRAEDTAVYYCAREVGDVLDYWGQGTLVTVSS
VL: QSVLTQPPSASGTPGQRVTISCTGTSSDIGRYNYVSWYQQLPGTAPKLLIYRNTQRPSGVPDRFSGSKSGTSASLAISGLRSEDEADYYCGTWDSSLNAYVFGGGTKLTVL
On to B7, for which the EC50 in assay [1] was 1.8 nM; in assay [2], 0.187 nM; in assay [3], 1.01 nM.

B8: #1 antibody (antibody, V domains shown)
VH: EVQLLESGGGLVQPGGSLRLSCAASGFTFSSYAMSWVRQAPGKGLEWVSTITGSGGSTYYADSVKGRFTISRDNSKNTLYLQMNSLRAEDTAVYYCARYKSGAFDIWGQGTLVTVSS
VL: EIVLTQSPGTLSLSPGERATLSCRASQGIGNYLGWYQQKPGQAPRLLIYTASSLQSGIPDRFSGSGSGTDFTLTISRLEPEDFAVYYCQQGYSTPSWTFGQGTKVEIK
On to B8, for which the results for the EC50 in assay [1], in assay [2] and in assay [3] were 0.18 nM, 0.015 nM and 0.605 nM, respectively.

B9: #8 antibody (antibody, V domains shown)
VH: EVQLLESGGGLVQPGSSLRLSCAASGFTFSSYWISWVRQAPGKGLEWVSEISPSGNTNYNPSLKSRFTISRDNSKNTLYLQMNSLRAEDTAVYYCAREVGDLLDYWGQGTLVTVSS
VL: QSVLTQPPSASGTPGQRVTISCSGSNIGNNYVSWYQQLPGTAPKLLIYQDSKRPSGVPDRFSGSKSGTSASLAISGLRSEDEADYYCLVWDRSSDHFVFGGGTKLTVL
B9: the 50% effective concentration (EC50) in assay [1] came out at 0.63 nM; in assay [2], 0.06 nM; in assay [3], 0.159 nM.
